What was measured:
[1] = molecular target: human insulin receptor A (human) (UniProt P06213); experiment: radioligand binding
[2] = pigs; previously observed; cited from earlier work

Substance | fold increase in hIR-A affinity, 20 vs 0 mM glucose, without albumin [1] [fold] | half-life after s.c. administration [2] [h]
NNC2215 (from UniProt P01308 90-110; P01308 25-53) (ligand) | 6.8 | 
insulin detemir |  | 6.5

— article PMC11499270 (Nature, 2024)
